IntAct's records for PubMed 18786923

B1: Complement factor H (Homo sapiens), P08603 (parent)
chain: MRLLAKIICLMLWAICVAEDCNELPPRRNTEILTGSWSDQTYPEGTQAIYKCRPGYRSLGNVIMVCRKGEWVALNPLRKCQKRPCGHPGDTPFGTFTLTGGNVFEYGVKAVYTCNEGYQLLGEINYRECDTDGWTNDIPICEVVKCLPVTAPENGKIVSSAMEPDREYHFGQAVRFVCNSGYKIEGDEEMHCSDDGFWSKEKPKCVEISCKSPDVINGSPISQKIIYKENERFQYKCNMGYEYSERGDAVCTESGWRPLPSCEEKSCDNPYIPNGDYSPLRIKHRTGDEITYQCRNGFYPATRGNTAKCTSTGWIPAPRCTLKPCDYPDIKHGGLYHENMRRPYFPVAVGKYYSYYCDEHFETPSGSYWDHIHCTQDGWSPAVPCLRKCYFPYLENGYNQNYGRKFVQGKSIDVACHPGYALPKAQTTVTCMENGWSPTPRCIRVKTCSKSSIDIENGFISESQYTYALKEKAKYQCKLGYVTADGETSGSITCGKDGWSAQPTCIKSCDIPVFMNARTKNDFTWFKLNDTLDYECHDGYESNTGSTTGSIVCGYNGWSDLPICYERECELPKIDVHLVPDRKKDQYKVGEVLKFSCKPGFTIVGPNSVQCYHFGLSPDLPICKEQVQSCGPPPELLNGNVKEKTKEEYGHSEVVEYYCNPRFLMKGPNKIQCVDGEWTTLPVCIVEESTCGDIPELEHGWAQLSSPPYYYGDSVEFNCSESFTMIGHRSITCIHGVWTQLPQCVAIDKLKKCKSSNLIILEEHLKNKKEFDHNSNIRYRCRGKEGWIHTVCINGRWDPEVNCSMAQIQLCPPPPQIPNSHNMTTTLNYRDGEKVSVLCQENYLIQEGEEITCKDGRWQSIPLCVEKIPCSQPPQIEHGTINSSRSSQESYAHGTKLSYTCEGGFRISEENETTCYMGKWSSPPQCEGLPCKSPPEISHGVVAHMSDSYQYGEEVTYKCFEGFGIDGPAIAKCLGEKWSHPPSCIKTDCLSLPSFENAIPMGEKKDVYKAGEQVTYTCATYYKMDGASNVTCINSRWTGRPTCRDTSCVNPPTVQNAYIVSRQMSKYPSGERVRYQCRSPYEMFGDEEVMCLNGNWTEPPQCKDSTGKCGPPPPIDNGDITSFPLSVYAPASSVEYQCQNLYQLEGNKRITCRNGQWSEPPKCLHPCVISREIMENYNIALRWTAKQKLYSRTGESVEFVCKRGYRLSSRSHTLRTTCWDGKLEYPTCAKR
partner: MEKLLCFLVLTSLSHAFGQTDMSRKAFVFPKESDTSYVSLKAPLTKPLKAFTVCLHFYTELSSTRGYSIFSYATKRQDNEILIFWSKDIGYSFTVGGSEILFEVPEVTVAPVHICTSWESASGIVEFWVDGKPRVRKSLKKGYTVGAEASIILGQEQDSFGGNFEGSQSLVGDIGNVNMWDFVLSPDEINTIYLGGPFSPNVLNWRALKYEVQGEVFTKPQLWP

Variants of: B1
Settings: with crp_human CRP

effect of a mutation on the interaction	Variant
with no effect	Y402H

Variants of: B1
Settings: with crp_human CRP
Remark: another data set of the same source

effect of a mutation on the interaction	Variant
decreasing interaction strength	Y402H
